Laboratory results: patent US20160195533

Molecular target: Snail1, endogenous protein of A549, HCC44, HEK293T or H1299 cells
Sequence (chain, as listed by the source): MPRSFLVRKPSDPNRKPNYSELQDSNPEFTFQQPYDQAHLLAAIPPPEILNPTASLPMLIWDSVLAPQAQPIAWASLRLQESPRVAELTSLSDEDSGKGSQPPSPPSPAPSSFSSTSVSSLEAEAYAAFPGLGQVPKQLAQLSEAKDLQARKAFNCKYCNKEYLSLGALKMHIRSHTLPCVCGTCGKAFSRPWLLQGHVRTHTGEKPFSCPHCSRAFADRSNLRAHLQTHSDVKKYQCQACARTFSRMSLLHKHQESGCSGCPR

B1: glutamyl-prolyl-tRNA synthetase (EPRS), endogenous protein of A549 or HEK293T cells (protein)
chain: MATLSLTVNSGDPPLGALLAVEHVKDDVSISVEEGKENILHVSENVIFTDVNSILRYLARVATTAGLYGSNLMEHTEIDHWLEFSATKLSSCDSFTSTINELNHCLSLRTYLVGNSLSLADLCVWATLKGNAAWQEQLKQKKAPVHVKRWFGFLEAQQAFQSVGTKWDVSTTKARVAPEKKQDVGKFVELPGAEMGKVTVRFPPEASGYLHIGHAKAALLNQHYQVNFKGKLIMRFDDTNPEKEKEDFEKVILEDVAMLHIKPDQFTYTSDHFETIMKYAEKLIQEGKAYVDDTPAEQMKAEREQRIDSKHRKNPIEKNLQMWEEMKKGSQFGQSCCLRAKIDMSSNNGCMRDPTLYRCKIQPHPRTGNKYNVYPTYDFACPIVDSIEGVTHALRTTEYHDRDEQFYWIIEALGIRKPYIWEYSRLNLNNTVLSKRKLTWFVNEGLVDGWDDPRFPTVRGVLRRGMTVEGLKQFIAAQGSSRSVVNMEWDKIWAFNKKVIDPVAPRYVALLKKEVIPVNVPEAQEEMKEVAKHPKNPEVGLKPVWYSPKVFIEGADAETFSEGEMVTFINWGNLNITKIHKNADGKIISLDAKLNLENKDYKKTTKVTWLAETTHALPIPVICVTYEHLITKPVLGKDEDFKQYVNKNSKHEELMLGDPCLKDLKKGDIIQLQRRGFFICDQPYEPVSPYSCKEAPCVLIYIPDGHTKEMPTSGSKEKTKVEATKNETSAPFKERPTPSLNNNCTTSEDSLVLYNRVAVQGDVVRELKAKKAPKEDVDAAVKQLLSLKAEYKEKTGQEYKPGNPPAEIGQNISSNSSASILESKSLYDEVAAQGEVVRKLKAEKSPKAKINEAVECLLSLKAQYKEKTGKEYIPGQPPLSQSSDSSPTRNSEPAGLETPEAKVLFDKVASQGEVVRKLKTEKAPKDQVDIAVQELLQLKAQYKSLIGVEYKPVSATGAEDKDKKKKEKENKSEKQNKPQKQNDGQRKDPSKNQGGGLSSSGAGEGQGPKKQTRLGLEAKKEENLADWYSQVITKSEMIEYHDISGCYILRPWAYAIWEAIKDFFDAEIKKLGVENCYFPMFVSQSALEKEKTHVADFAPEVAWVTRSGKTELAEPIAIRPTSETVMYPAYAKWVQSHRDLPIKLNQWCNVVRWEFKHPQPFLRTREFLWQEGHSAFATMEEAAEEVLQILDLYAQVYEELLAIPVVKGRKTEKEKFAGGDYTTTIEAFISASGRAIQGGTSHHLGQNFSKMFEIVFEDPKIPGEKQFAYQNSWGLTTRTIGVMTMVHGDNMGLVLPPRVACVQVVIIPCGITNALSEEDKEALIAKCNDYRRRLLSVNIRVRADLRDNYSPGWKFNHWELKGVPIRLEVGPRDMKSCQFVAVRRDTGEKLTVAENEAETKLQAILEDIQVTLFTRASEDLKTHMVVANTMEDFQKILDSGKIVQIPFCGEIDCEDWIKKTTARDQDLEPGAPSMGAKSLCIPFKPLCELQPGAKCVCGKNPAKYYTLFGRSY
EMT markers after EPRS knock-down (immunoblot, A549): at the time of EPRS knock-down, the Snail1 and p-SMAD3 was reduced and the E-cadherin was increased. This indicates that the EMT progress was suppressed.
